Measured values as given in PMC8494329.

Target: 16055 NFL trimer (native flexibly linked HIV-1 Env stabilized trimer, clade C strain 16055) (HIV-1, clade C, strain 16055)

B1: D11A.B5 Fab (Fab, V domains shown)
VH: HLQLQESGPGLVKPSETLSLTCAVSGGSSSDYWWSWIRQPPGKGLEWIGRIDSIGNTYYNPSLRSRVTLSVDTSKNQFSLELTSVTAADTAVYYCARPYCAIGRCYESWGQGVLVTVSS
VL: EVVFTQPHSVSGSPGQTVTISCTRTSGSIDSEYVQWYQQRPGSAPTIVIYRDNQRPSGVPDRFSGSIDSSSNSASLAISGLKSEDEADYYCQSSDDSYNWVFGGGTRLTVL
IC50 of neutralisation of the autologous 16055 pseudovirus (TZM-bl cells); the mAb on Env of the virus: 3.68 μg/mL

B2: VD20.5A4 Fab (Fab, V domains shown)
VH: QVQLQESGPGLVKPSETLSLTCAVSGASISSNYWSWIRQPPGKGLEWIGRIYDPTDSTDYNPSLESRATISKDTSKNHFSLTLSSVTAADTAVYFCARGLWSGYFFWFDVWGPGVLVTVSS
VL: DIQMTQSPSSLSASVGDSVTVTCRASQGIDKELSWYQQKPGKAPTLLIYAASSLQTGVSSRFSGSGSGTDYTLTISSLQPEDVATYYCLQDYATPYSFGQGTKVEIK
IC50 of neutralisation of the autologous 16055 pseudovirus (TZM-bl cells); the mAb on Env of the virus: 0.005 μg/mL
